The record followed here is the supplement of paper PMC9170038.

For data set [1], the system named is MS2 coat protein. The experiment in a line: apparent KD of MS2 coat protein, switch ON state; designed switch direction (-1 OFF switch, 1 ON switch): -1; higher = weaker reporter binding. The conditions noted are these: FMN input: 0 or 200 uM; Eterna round: R93 (includes R88 designs). The gist of the method:
(§1)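 Designed RNA switches were transcribed on-chip from Illumina sequencing clusters and titrated with SNAP-549-labelled MS2 coat protein in twofold steps from 0.7 or 1.5 nM up to 3 µM. Each step lasted 0.8–1.5 h at first and 10–20 min by the end, in 100 mM Tris-HCl pH 7.5, 80 mM KCl and 4 mM MgCl2, without or with constant ligand. Apparent KD is the median, for each design, of fits to normalised cluster binding curves.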

The test system of data set [2] is MS2 coat protein. Put plainly: apparent KD of MS2 coat protein, switch OFF state (with FMN for OFF switches, without FMN for ON switches); designed switch direction (-1 OFF switch, 1 ON switch): -1; higher = weaker reporter binding. The conditions noted are these: FMN input: 0 or 200 uM; Eterna round: R93 (includes R88 designs). Summed up:
as §1

“AAAAAGUCAGGAUAUAUCAAAGCCUAUGAAAGUGGGAAAGGGUAGAAGGGACAUGAGGAUCACCCAUGUAAAAA [Banishment 10 - Jieux - Exclusion 4]”: the results for the “apparent KD of MS2 coat protein” value in data set [1] and in data set [2] were 0.0623 µM and 0.0385 µM, respectively.
Take “AACUCGUCAGGAUAUGCGCACAGAUAAUACGCUACACAAAAGCAGAAGGGACAUGAGGAUCACCCAUGUAAAUA [JR_Exc004_Sub503]”: the “apparent KD of MS2 coat protein” value in data set [1] worked out at 0.0351 µM; in data set [2] it was 0.0221 µM.
For “AAAAAGUCAGGAUAUCGGAAAAAAAAAAUAAAAAAAAAAAACGAGAAGGGACAUGAGGAUCACCCAUGUAUGAC [Mat - Exclusion 4 - Mayanna - D112]”, in that order: 0.0374 µM and 0.0413 µM.
For “AAGAAGUGAGGAUAUCGAAGACUGUCGAAAAGACAGUCGAACGAGAAGGCACAUGAGGAUCACCCAUGUAAGAA [Marsupial]”, in that order: 0.0344 µM and 0.045 µM.
For “AAGAACCGAGGAUAUACAUGAAAGAAAGAAAAGAAAAGAAAACAUGAGGAUCACCCAUGUAGAAGGCGGAAGAA [EteRNA is fun!]”, in that order: 0.0274 µM and 0.0353 µM.
In the case of “AAAAGACAUGAGGAUCACCCAUGUUAGGAUAUCGUGCAGAAAAAAAAAAAAAACUGCACGAGAAGGAACAAGGA [Seclusion]”, the “apparent KD of MS2 coat protein” value in data set [1] was determined as 0.0305 µM; in data set [2], 0.0519 µM.
For “AGUCAUACAGGAUAUACAUGAGGAUCACCCAUGUUUAUCCUAAAAUAAAAAAAAACAUGUAGAAGGGUAUGACA [EX3 215: Super Stable 15]”, in that order: 0.0151 µM and 0.0141 µM.
In the same order, the values of “AAAAAGUCAGGAUAUGGCAAAGGUCACGAAAGUGACAAAGGCUAGAAGGGACAUGAGGAUCACCCAUGUAAAAA [Fiskers Exclusion 4 D3]” are 0.0534 µM and 0.0353 µM.
On to “AGCACGUCAGGAUAUACGAAAAAAAAGGGUAAAAAAAAGGGACAUGAGGAUCACCCAUGUAGAAGGGACAAGCA [Diamond 93]”, for which the “apparent KD of MS2 coat protein” value in data set [1] was 0.147 µM; in data set [2] it was 0.172 µM.
As for “AAGAAGGCAGGAUAUACAUGAGGAUCACCCAUGUAAAAGAAAGAAGGGAAAGAGAAAAGUAGAAGGGCCAAGAA [Hedjkheperre-setpenre Takelot II]”, the “apparent KD of MS2 coat protein” value in data set [1] was 0.0438 µM; in data set [2] it was 0.0684 µM.
For “AGCAAGAGAGGAUAUACAUAGGAAAAAAAAGUCAGAUCCCUACAUGAGGAUCACCCAUGUAGAAGGCUCUGGCA [Ex2 Design 154: Sub-opt 18]”, in that order: 0.0151 µM and 0.0122 µM.
In the same order, the values of “AAAAAGUAAGGAUAUACAAAAAUAAAAAAUUAUGAUAAAAAACAUGAGGAUCACCCAUGUAGAAGGUACGAAAA [AJ 3]” are 0.0275 µM and 0.0267 µM.
As for “AAAGUACGAGGAUAUACAUAGAUACAGAUACAUGUAGACGUACAUGAGGAUCACCCAUGUAGAAGGCGUACAUA [Mat - Same state - Mayanna Mod - D115]”, the “apparent KD of MS2 coat protein” value in data set [1] came to 0.154 µM; in data set [2], 0.0747 µM.
For “AAGAACCUAGGAUAUACAUGAGGAUCACCCAUGUAAAAGAAAGAAAAGGGAAAGAAAAGUAGAAGGAGGAAGAA [Menmire-setpenre Amenmesse]”, in that order: 0.0184 µM and 0.0222 µM.
For “AAAAAGUCAGGAUAUACAGGAGUGCGAAAGCACAAAAAAAAACAUGAGGAUCACCCAUGUAGAAGGGACAAGAA [Married to this design, 61% 6]”, in that order: 0.0527 µM and 0.0331 µM.
In the same order, the values of “AUAAAGUCAGGAUAUGUAAGAAUAACGAAAGUUAUAAAGAAACAGAAGGGACAUGAGGAUCACCCAUGUAAAAU [Ex 4 #3]” are 0.0431 µM and 0.031 µM.
For “AAGAAGGAAGGAUAUACAAAAUAAAAGAAAAGAAAGAAAGAACAUGAGGAUCACCCAUGUAGAAGGUCCAAGAA [Sedjefakare]”, the figures for the “apparent KD of MS2 coat protein” value in data set [1] and in data set [2] were 0.0298 µM and 0.0347 µM, respectively.
In the case of “AUAAAGCGAGGAUAUACAUGAGGAUCACCCAUGUAAAUAAAUAGGAGAGCCACAAUAAGUAGAAGGUGUAAUAA [JR_Exc003_Sub009]”, the “apparent KD of MS2 coat protein” value in data set [1] was 0.0626 µM; in data set [2], 0.0733 µM.
For the sequence “AAAAAACAUGAGGAUCACCCAUGUAAGGAUAUGCUGAAAAACACGGAAAAAACGUGCAGCAGAAGGUACAAAAG [Mat - Exclusion 1 - Eli mod - D90]”, the “apparent KD of MS2 coat protein” value in data set [1] was 0.0161 µM; in data set [2], 0.0339 µM.
Regarding “AAAAAGUCAGGAUAUACAGAAAAAAAAACGAAAAAAAAUCUGUAGAAGGGACAUGAGGAUCACCCAUGUUAAAA [Ex 4 May 13]”, the “apparent KD of MS2 coat protein” value in data set [1] is 0.0415 µM; in data set [2], 0.0268 µM.
In the same order, the values of “AAGAGUACAGGAUAUACAUGAGGAUCACCCAUGUGAAAAUUAAGUGGCGUACAACAAAGUAGAAGGGUACUGGA [Ruby 51]” are 0.022 µM and 0.0417 µM.
With “AGAAAGUCAGGAUAUAUAGGAAAAAUAAAAAAAAUAAAACUAUAGAAGGGACAUGAGGAUCACCCAUGUUAAGA [Mat - Exclusion 4 - Mayanna - D133]”, the “apparent KD of MS2 coat protein” value amounted to 0.034 µM in data set [1] and 0.0178 µM in data set [2].
For “AAAAAGUCAGGAUAUCGGAAAAAAAAAAAAAAAAGGAGAAACGAGAAGGGACAUGAGGAUCACCCAUGUAAAAA [No Frills]”, in that order: 0.117 µM and 0.044 µM.
For “GAACGCCUAGGAUAUACAUGAGGAUCACCCAUGUCUCCCAGUCCUGGAGUGACCUCUAGUAGAAGGAGGAAUAA [Ertein]”, in that order: 0.342 µM and 0.115 µM.
On to “AAAAAACAUGAGGAUCACCCAUGUGAGGAUAUCUGUAUUCAAUCCUCGGAUUGAAUACAGAGAAGGCACAUGGA [Ex1: 610]”, for which the “apparent KD of MS2 coat protein” value is 0.0464 µM in data set [1] and 0.0138 µM in data set [2].
“AACUGACAUGAGGAUCACCCAUGUCAGGAUAUGACAUCGAGAAAUAAAUAAAUCGUUGUCAGAAGGGACAUGAA [Design 79: Sub-opt TB]”: the “apparent KD of MS2 coat protein” value in data set [1] was determined as 0.0175 µM; in data set [2], 0.0134 µM.
In the same order, the values of “AAAAAACAUGAGGAUCACCCAUGUGAGGAUAUGAUGCGAAUAAAGAAAGAAGAAAGCAUCAGAAGGCACAAAAA [58%, Disencluded 3, 2]” are 0.0258 µM and 0.0435 µM.
In the same order, the values of “CAGUACUGAGGAUAUACAUGAGGAUCACCCAUGUAUCCUAGCUAGGAAACUAGCAAAAGUAGAAGGCAGUACUG [Ex3: 819]” are 0.0135 µM and 0.118 µM.
For “AAGAAACAUGAGGAUCACCCAUGUCAGGAUAUUGAAGAAAGAAAGAAAGAAAGAAGAACAAGAAGGGACAAAGG [Gaius Vitrasius Pollio]”, in that order: 0.0443 µM and 0.0333 µM.
For the sequence “UAAAGACAUGAGGAUCACCCAUGUGAGGAUAUCGGAGGUGACGGAACAUCGAGUUCGGCGAGAAGGCGCAGGAA [JR_Exc001_Sub408]”, the “apparent KD of MS2 coat protein” value in data set [1] was determined as 0.0696 µM; in data set [2] it was 0.049 µM.
In the same order, the values of “AAAAAUCUAGGAUAUACAUGAGGAUCACCCAUGUAAGAAAAUGAUUACACAAAAGAAAGUAGAAGGAGAUAAAA [Ex 3 May 19]” are 0.0174 µM and 0.0184 µM.
For “AACAGUACAGGAUAUACAUGAGGAUCACCCAUGUGAGAAUUAAGUGGAAGACCACAAAGUAGAAGGGUACUGAA [Mat - Exclusion 3 - JL mod - D10]”, in that order: 0.0284 µM and 0.189 µM.
In the same order, the values of “AAGAAGCUAGGAUAUACAAAAUAAAAGAAAAGAAAGAAAGAACAUGAGGAUCACCCAUGUAGAAGGAGCAAGAA [Sebkay]” are 0.0313 µM and 0.0214 µM.
With “AAAGGGUCAGGAUAUUGAUUAAUAAUAAAAUAAAUAAAGAUCAAGAAGGGACAUGAGGAUCACCCAUGUAUAAA [May 78]”, the “apparent KD of MS2 coat protein” value was found to be 0.0405 µM in data set [1] and 0.063 µM in data set [2].
In the case of “AACUAGCUAGGAUAUACAUGAGGAUCACCCAUGUAAAAAAAAAAAAAAAAAUUUUUAUGUAGAAGGAGCUAGUA [Design 1 - Brourd - Exclusion 3]”, the “apparent KD of MS2 coat protein” value amounted to 0.0279 µM in data set [1] and 0.0354 µM in data set [2].
With “AAGAACCUAGGAUAUACAUGAAAGAAAGAAAAGAAAAGAAAACAUGAGGAUCACCCAUGUAGAAGGAGGUAGAA [EteRNA is fun!]”, the figures for the “apparent KD of MS2 coat protein” value in data set [1] and in data set [2] were 0.0267 µM and 0.0505 µM, respectively.
In the same order, the values of “AAACGUAGAGGAUAUACGAAAAGAUUACGAAAGUAAUCGGGACAUGAGGAUCACCCAUGUAGAAGGCUACGAAA [Mod2 of Meechl 64% 3]” are 0.0271 µM and 0.061 µM.
In the same order, the values of “AUAAUGUGAGGAUAUACAUGAGGAUCACCCAUGUAAUUAAAAAGGAGAGACACAAUUCGUAGAAGGUACAUUUA [JR_Exc003_Sub509]” are 0.0234 µM and 0.0263 µM.
For “AACAGUAGAGGAUAUACAUGAGGAUCACCCAUGUGAGAAACCACUGGCGUACCAGAAAGUAGAAGGCUACUGGA [Moding Maslow Revisited (73) 30]”, in that order: 0.103 µM and 0.0346 µM.
As to “AACAGUACAGGAUAUACAUGAGGAUCACCCAUGUAAAAAAGGGCUGGCGUACCAGAAAGUAGAAGGGUACUGGA [Moding Maslow revisited (73) 9]”, the “apparent KD of MS2 coat protein” value was determined as 0.0306 µM in data set [1] and 0.0881 µM in data set [2].
